Results: the supplement of paper PMC9170038

What was measured:
MS2 coat protein [1] = experiment: apparent KD of MS2 coat protein; designed switch direction (-1 OFF switch, 1 ON switch): 1; higher = weaker reporter binding; conditions: Eterna round: R98
Description: (§1)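 RNA-MaP: designed FMN/MS2 RNA switches (84 nt design region) are transcribed on-chip within common flanks and titrated with SNAP-549-labelled MS2 coat protein (about 1-3000 nM) in 100 mM Tris pH 7.5, 80 mM KCl, 4 mM MgCl2, without or with 200 uM FMN. Median apparent KD per design; activation ratio = KD,OFF / KD,ON.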

MS2 coat protein [2] = experiment: apparent KD of MS2 coat protein; higher = weaker reporter binding; conditions: Eterna round: R101
Description: as §1

MS2 coat protein [3] = experiment: apparent KD of MS2 coat protein, switch OFF state (with FMN for OFF switches, without FMN for ON switches); designed switch direction (-1 OFF switch, 1 ON switch): 1; higher = weaker reporter binding; conditions: FMN input: 0 or 200 uM; Eterna round: R93 (includes R88 designs)
Outline: (§2)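 Apparent KD is reported per design as the median of normalised binding-curve fits across its clusters. The RNA switches were made by on-chip transcription from Illumina sequencing clusters. SNAP-549-labelled MS2 coat protein was then added in twofold steps (0.7 or 1.5 nM to 3 µM; 0.8–1.5 h to 10–20 min per step) in 100 mM Tris-HCl pH 7.5, 80 mM KCl, 4 mM MgCl2, without or with constant ligand.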

MS2 coat protein [4] = experiment: apparent KD of MS2 coat protein, switch ON state; designed switch direction (-1 OFF switch, 1 ON switch): 1; higher = weaker reporter binding; conditions: FMN input: 0 or 200 uM; Eterna round: R93 (includes R88 designs)
Outline: as §2

| Sequence | apparent KD of MS2 coat protein (MS2 coat protein [1]; input ligand: FMN 200 uM) [nM] | apparent KD of MS2 coat protein (MS2 coat protein [2]; input ligand: FMN 200 uM) [nM] | apparent KD of MS2 coat protein (MS2 coat protein [2]; input ligand: none) [nM] | other results |
| --- | --- | --- | --- | --- |
| GUAGCUAUCGGAGGAUAUUCAUAGCGGAAACGCACAUGAGGAUCACCCAUGUGGCGAAAGCCUUGGGAGAAGGCCGAUAGCUAC [jl-sng2-2.30 Eli mod] | 17.7 | – | – | apparent KD of MS2 coat protein (MS2 coat protein [1]; input ligand: none): 99.3 nM |
| GCGGAGGGCACAGGAUAUCGUCCUUAGUUGGUACGAGAAGGGUGGCGCUGCCACAUGAGGAUCACCCAUGUGCCCAAACUAUAG [Eresgeises] | 639 | – | – | apparent KD of MS2 coat protein (MS2 coat protein [1]; input ligand: none): 211 nM |
| AAAACAUGAGGAUCACCCAUGUAUAGAUCGAUUAUUAGGAGUGAGGAUAUGCAAGUUAUAAGGAAGCAGAAGGCACAGGGAAAA [JR_SSNG3_Sub073] | 23.2 | – | – | apparent KD of MS2 coat protein (MS2 coat protein [1]; input ligand: none): 23.9 nM |
| ACAUACAUUCGAGGAUAUCGGUGAACAAAUUAACGAGAAGGCGAUAUAAUUUUUAAUCUUAUAAACAUGAGGAUCACCCAUGUA [JR_SSNG1_Sub001] | 17 | – | – | apparent KD of MS2 coat protein (MS2 coat protein [1]; input ligand: none): 20.9 nM |
| AAGCACGAAGAUUAUUAUGAAUAAACAUGAGGAUCACCCAUGUAGGAUAUCGACUCGAAUAGAGUCGAGAAGGACAAAACGUGC [#BasePairInsertion1E] (puzzle (switch architecture): Exclusion NG 3) | – | 11.6 | 6.96 | – |
| UGUAAUAUUAUAGGAUAUGGAUACGAUACGUAUCCAGAAGGGUGAUUAAACUAUAAUCUAUACAUGAGGAUCACCCAUGUUUAU [AtrosYaY10] (puzzle (switch architecture): Same State NG 1) | – | 157 | 173 | – |
| ACAGGUCGUGAGAAGGCGGAAAGCACCGUCGAAAGACGGUGCAAUUAAGAUCUUCGAGGAUCACCCGAGGAUAUCACGACCUGA [#SharedSequence - IExNG2: 15] (puzzle (switch architecture): Inverted Exclusion NG 2) | – | 654 | 75.1 | – |
| UUCACGGCGGGAAUAAGUGGUACUCAGGAUAUGGACUAGAAAUACAUGAGGAUCACCCAUGUGUUCCAGAAGGGAGGGCAUGCG [Tisorabea] (puzzle (switch architecture): Small Loop Same State NG 3) | – | 10.3 | 45.6 | – |
| AAGUGAAAUCAGAAGGGCUCCAGCAAAGCUGGAGCAGGAUAUGAGGAUCACCCAUGUCACCUGACGGUCGAAACGACCGUCAGG [#SharedSequence - IExNG1: 6-2] (puzzle (switch architecture): Inverted Exclusion NG 1) | – | 521 | 56.9 | – |
| GCUUGCGACGCAGGAUAUGGGUGCCUAAACACGAGGAUCACCCGUGUACAGGAAGCGAAAAGCUCUCAGAAGGGCGUCGCAGGC [United States 8 - Jieux - Same State NG 2] | 17.2 | – | – | apparent KD of MS2 coat protein (MS2 coat protein [1]; input ligand: none): 22.6 nM |
| AAAACAUGAGGAUCACCCAUGUAUAGAACGGUUAAUAAAAGUGAGGAUAUACUAAAUUUUAUAUAGUAGAAGGCACUGGGUACU [JR_SSNG3_Sub010] | 24.7 | – | – | apparent KD of MS2 coat protein (MS2 coat protein [1]; input ligand: none): 17.1 nM |
| GUAGCAUACCGAGGAUAUUCAUAUAAUAAAUAAACAUGAGGACCACCCAUGUGGCGAAAGCCUUGGGAGAAGGCGGAAUGCUAC [Xeonanis 20 - mod55 1] | 70.9 | – | – | – |
| AAGAUACUUACAGGAUAUAGGGCAGAGGGUGCCCUAGAAGGGUGAACAUGAGGAUCACCCAUGUAUGUAUCUGAUUAGAAGGCA [Lezaraoren] | 119 | – | – | apparent KD of MS2 coat protein (MS2 coat protein [1]; input ligand: none): 73.2 nM |
| AGGAGAAAUGUAGGAUAUAUAUAUAUAUAUAGGCAAAGCGUAUAUAUAUAUAUAGAAGGACAUGAGGAUCACCCAUGUUUCCCU [#Lowering the energy 12] (puzzle (switch architecture): Small Loop Exclusion NG 1) | – | 9.42 | 10.2 | – |
| CUUACUUUGUAGAAGGGUGACAUGAGGAUCACCCAUGUGCGUCGCCUGAAAGACCAGGGUACGCCACAGGAUAUACAAAGUAAG [Titerexe] (puzzle (switch architecture): Inverted Same State NG 2) | – | 128 | 28.4 | – |
| UUGAAUCGAAACAUGAGGAUCACCCAUGUGUUGUAAUUGACAUAGGAUAUGUAUAUACUUUUAUAAUAGAAGGAUGACGAUACU [S-state NG3 31] (puzzle (switch architecture): Same State NG 3) | – | 12 | 15.8 | – |
| GAUUACUUCACAGGAUAUAAAAUAAAGCAGAUUUUAGAAGGGUGAGCCUCGUCGACCGCGACAUGAGGAUCACCCAUGUUGUGU [Bitetiqu] | 50.8 | – | – | apparent KD of MS2 coat protein (MS2 coat protein [1]; input ligand: none): 29.3 nM |
| CGCGAACAGUUUUAAAAGAGGAUCACCCAUGUGGACUCAUGGUAGGAUAUCGGGAAGGAGGAAACCGAGAAGGGCUGGUGAGCC [salish99_SSNG3_019 #HINGE] (puzzle (switch architecture): Same State NG 3) | – | 18 | 37.5 | – |
| GCAGCUAAUGCAGGAUAUCAGCACGUGUAGUGCUGAGAAGGGCACAUGAGGAUACUGACUGUGAUCAAUUAAUAUUAAUGCUGC [salish99#hingeEx3_55-58_004] (puzzle (switch architecture): Exclusion NG 1) | – | 9.19 | 63.5 | – |
| AAAAUGAUUUUAGGAUAUGACUCCGAAACGGAGUCAGAAGGAGGAUCACCCUUUCAAAGCUCAGCGUCGAAAGACGCUGAGCAA [#SharedSequence - ExNG1-20] (puzzle (switch architecture): Exclusion NG 1) | – | 1200 | 201 | – |
| GCAGCUAAUGCAGGAUAUCAGCACGUGUAGUGCUGAGAAGGGCACAUGAGGAUACCGACUGUGAUCAAUUAAUAUUAAUGCUGC [salish99#hingeEx3_55-58_003] (puzzle (switch architecture): Exclusion NG 1) | – | 6.87 | 9.43 | – |
| GCGGCCCGGGAGAAGGACAUGAGGAUCACCCAUGUCGCCGGGCCCGGGAAACCGGGCCCGGCCAUGUAGGAUAUCCCGGGCCGC [#This is a good prank] (puzzle (switch architecture): Inverted Exclusion NG 2) | – | 5.14 | 4.59 | – |
| CAGUCGACCAUAACAAGGUCGACUGACUUCUGAGGAUCACCCAGAAGGCGUCACCUAAUAGGUGACGAGGAUAUGGAGUGUAAA [#SharedSequence IExNG# - 7] (puzzle (switch architecture): Inverted Exclusion NG 3) | – | 92.7 | 32 | – |
| CGCUAUGAUGGGUGUAAUAGAGCAUAGGAUAUGCUUGUACAUGAGGAUCACCCAUGUUAUAUUUUGCAGAAGGGUGCAUUUGCG [JR #DistanceFar #Hairpin #NP SLSSNG3 Sub072] (puzzle (switch architecture): Small Loop Same State NG 3) | – | 255 | 460 | – |
| AGUGUCAUCGAGAAGGCCUCAAAAUGAGGAUCACCCAUGUUGUAAUAUGGGAGGAUAUCGAUGAUACAGCUACGUUUCGUAGCA [salish99_InSLSSNG1_020 #HINGE] (puzzle (switch architecture): Inverted Small Loop Same State NG 1) | – | 58.9 | 98.3 | – |
| CCUGCACUUCAAGGAUAUCCAGUCGUUUCGACUGGAGAAGGUGAGGAUCACCCAUCUAGCCUGACGUUUGUCAGGCAUGCAGGU [#AddUracilToBrourdLoops 7 - Jieux - Exclusion NG1] (puzzle (switch architecture): Exclusion NG 1) | – | 81.7 | 84.3 | – |
| AAAUGAUAUCAGAAGGCGUGGACGAAACGUCCACGAGGAUAUGAGGAUCACCCAUGUCAGGUCAGCCUGCAAAGCAGGCUGACC [#SharedSequence - IExNG1: 7-4] (puzzle (switch architecture): Inverted Exclusion NG 1) | – | 562 | 50.3 | – |
| AGAAGACAUGAGGAUCACCCAUGUGGGAAUAUGGGAGGAUAUACAAAGACGAGAGUCAGAGUAGAAGGCCUAGGUA [salish99-ss1-109] | – | – | – | apparent KD of MS2 coat protein (MS2 coat protein [3]): 99.5 nM; apparent KD of MS2 coat protein (MS2 coat protein [4]): 32.5 nM |
| GAAAAACAUGAGGAUCACCCAUGUAGUAAUAUGGAAGGAUAUACAAAGACGUAAGUCAAAGUAGAAGGUCUAAAAG [Garnet 100] | – | – | – | apparent KD of MS2 coat protein (MS2 coat protein [3]): 24.7 nM; apparent KD of MS2 coat protein (MS2 coat protein [4]): 21.6 nM |
